Results as given in publication PMC4268493.

Molecular target: TNF-FLAG (UniProt P01375)
Experiment: SPR

Sequence of UniProt P01375 (P01375 whole entry): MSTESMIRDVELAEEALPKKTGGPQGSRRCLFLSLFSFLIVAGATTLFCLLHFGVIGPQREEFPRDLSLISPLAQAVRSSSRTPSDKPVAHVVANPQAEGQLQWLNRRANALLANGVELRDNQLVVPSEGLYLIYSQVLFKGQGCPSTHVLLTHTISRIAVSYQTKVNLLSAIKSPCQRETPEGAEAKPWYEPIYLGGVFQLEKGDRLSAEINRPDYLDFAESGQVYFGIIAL

For “Δ6-TNFR1-Fc fusion protein (from UniProt P19438-4 30-183)”, which Kd is on record?
Its Kd is 15.6 nM.
